From US12662542B2, “Agnostic anti-mullerian hormone receptor binding peptides” (OVARES D LLC, priority 2019, dated 2026)
Square brackets hold non-standard residues; d marks the D form. Ends that are not written are not given here. Peptide text beside a SMILES is read from it.

Columns and labels:
[1] = test system: granulosa cells (GCs); experiment: Cell Counting Kit-8 (CCK-8) proliferation and cytotoxicity assay; format: cell-based, human
Method: GCs were isolated at the time of oocyte retrieval from three IVF/ICSI patients with tubal factor infertility as previously reported. Follicular aspirates were centrifuged at 900×g at room temperature. Blood contaminants were removed from GCs by Histopaque™ 1077 (Sigma-Aldrich™, St. Louis, MO, USA) gradient centrifugation at 800×g for 20 min at room temperature. The GC pellet was resuspended in a 20-ml volume of medium [Dulbecco's modified Eagle's medium/Ham's Nutrient Mixture F-12 (Gibco, Thermo Fisher Scientific, Inc., Waltham, MA, USA) with 10% fetal bovine serum (make) and washed by a further 10-min centrifugation at 500×g. The GC pellet was then resuspended in 1 ml GC preparation medium containing 0.02% (w/v) EDTA and gentle repeated pipetting was performed to break up any cellular clumps. Following further washing, the cell stock was resuspended in the GC culture medium. The cells were seeded in nine-well cell culture plates at a density of 100,000 cells/well in medium and incubated for 24 hours with PBS (control), the NegAMHR2BP (SEQ ID NO: 4), or AMHR2BP (SEQ ID NO: 1).
For determination of cytotoxicity of the novel AMHR2BP (SEQ ID NO: 1), a Cell Counting Kit-8 (CCK-8) proliferation and cytotoxicity assay was used. CCK-8 is a as a sensitive colorimetric assay where Dojindo's highly water-soluble tetrazolium salt is reduced by dehydrogenase activities in cells. Living cells reduce the salt, producing a yellow-color formazan dye, which is soluble in the culture media. The amount of dye, generated by the activities of dehydrogenases in GCs, is directly proportional to the number of living cells. CCK-8 detection sensitivity is very high. We tested the following: (a) AMHR2BP (SEQ ID NO: 1) concentrations: 20 μg/ml, 50 μg/ml, 80 μg/ml, in addition to (b) NegAMHR2BP (SEQ ID NO: 4) 80 μg/ml, and (c) untreated cells (control).

[2] = biological target: T1, AMH-R2 (Homo sapiens, UniProt Q16671); experiment: peptide microarray assay identifying AMH receptor binding peptides; settings: microarray signal; for Average: average of Rep 1 and Rep 2; for Rep 1: replicate 1; for Rep 2: replicate 2
T1 construct: GST
T1 sequence (Q16671 18-573): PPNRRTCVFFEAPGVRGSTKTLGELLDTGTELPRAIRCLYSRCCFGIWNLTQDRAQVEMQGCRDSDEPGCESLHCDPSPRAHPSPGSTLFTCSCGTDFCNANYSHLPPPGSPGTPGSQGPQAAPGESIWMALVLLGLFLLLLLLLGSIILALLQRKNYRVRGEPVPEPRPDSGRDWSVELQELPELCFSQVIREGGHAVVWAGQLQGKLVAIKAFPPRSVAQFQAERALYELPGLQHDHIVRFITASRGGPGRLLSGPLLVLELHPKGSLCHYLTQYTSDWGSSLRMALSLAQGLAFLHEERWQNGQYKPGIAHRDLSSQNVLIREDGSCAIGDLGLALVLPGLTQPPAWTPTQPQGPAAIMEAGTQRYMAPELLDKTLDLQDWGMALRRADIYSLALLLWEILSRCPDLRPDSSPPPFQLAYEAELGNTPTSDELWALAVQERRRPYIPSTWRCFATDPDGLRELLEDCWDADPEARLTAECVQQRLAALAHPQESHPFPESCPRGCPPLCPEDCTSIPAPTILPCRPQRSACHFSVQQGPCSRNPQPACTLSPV
Excerpt: In view of the several actions of AMH, and because of the need for AMH receptor agonists and/or antagonist that can modify the activity of one or more of the AMH receptors, provided herein are AMH receptor binding peptides that modulate the activity of the AMH receptor, as described herein. Briefly, it was hypothesized that peptides that bind AMH receptors could be generated based on the amino acid sequence of the AMH biding site of the AMH-R2 receptor. More particularly, based on the amino acid sequence of the AMH-R2 that is responsible for binding AMH, as well as the amino acid sequences of AMH-R2 that are near the AMH binding site, a peptide microarray was used to identify candidate AMH receptor binding peptides that can activate AMH-R2 and thus produce similar effects to native AMH.
To identify candidate AMH receptor binding peptides described herein, a custom peptide library composed of replicate copies of a 124,000 17 mer peptide microarray was synthesized (Arizona State University, Tempe, AZ) using the method described in Legutki, J. B., et al., Scalable high-density peptide arrays for comprehensive health monitoring. Nat Commun., volume 5, 4785 (2014). The slide was assembled into an Arrayit 4×24 Hybridization Cassette and each peptide microarray was blocked with 150 uL of 30% human sera in 1×PBST for 1 hour at room temperature with shaking After blocking, the slide was washed 3× with 1×PBST using a Biotek plate washer prior to addition of protein targets. Each protein sample was diluted in 30% human sera in 1×PBST and 150 uL of each sample was dispensed into the appropriate wells in the cassette and incubated for 1 hour at 37 C with rotation at 300 rpm on a ThermoMix™ 500 heater/shaker.
After incubation, the cassette was dismantled, the slide washed 3 times in 1×PBST, rinsed three times with distilled, deionized water (ddH2O), and dried in a centrifuge for 2 minutes at 800 rpm. Secondary antibody (anti-GST, GE Healthcare™) was prepared at 10 nM in 30% human sera in 1×PBST and dispensed onto the slide. The slide was incubated for 1 hour at 37 C with rotation at 300 rpm as before. The slide was then washed 3 times in 1×PBST, rinsed 3 times with ddH2O, and dried in a centrifuge for 2 minutes at 800 rpm. Detection antibody, 10 nM Alexa Flour 647 donkey anti-goat IgG (H+L) (ThermoFisher Scientific™), was prepared in 0.75% casein in 1×PBST and dispensed onto the slide. The slide was covered and incubated for 1 hour at 37 C with rotation as before. The slide was washed 3 times in 1×PBST, rinsed 3 times with ddH2O, and dried in a centrifuge for 2 minutes at 800 rpm. The slide was scanned on an Innopsys™ Inoscan 910AL scanner and the resulting TIFF files were analyzed using the Genepix™ Pro 6.0 software. Data files were exported and analyzed using Microsoft Excel™ and JMP™ software.

Compound	Average [2]	Rep 1 [2]	Rep 2 [2]	GCs considered lifeless ([1]; 20 μg/ml)	GCs that ceased function and were considered lifeless ([1]; 80 μg/ml)	GC toxicity ([1]; 80 μg/ml)
CC(C)C[C@@H](NC(=O)[C@@H](C)NC(=O)[C@@H](NC(=O)CNC(=O)[C@H](CO)NC(=O)[C@@H](NC(=O)[C@@H](CCCNC(=N)N)NC(=O)[C@H](Cc1ccccc1)NC(=O)[C@H](CCC(N)=O)NC(=O)[C@H](CC(N)=O)NC(=O)[C@H](Cc1ccc(O)cc1)NC(=O)[C@H](C)NC(=O)[C@H](CC(N)=O)NC(=O)[C@H](CO)NC(=O)CNC(=O)[C@@H](N)C(C)C)C(C)C)C(C)C)C(=O)N[C@@H](CO)C(=O)O [SEQ ID NO: 1, VGSNAYNQFrVSGValS] (H-VGSNAYNQF[dR]VSGV[dA][dL]S-OH)	–	–	–	23%	74%	–
CC(C)C[C@@H](NC(=O)[C@@H](C)NC(=O)[C@@H](CCCNC(=N)N)NC(=O)[C@H](CCC(N)=O)NC(=O)[C@H](CC(N)=O)NC(=O)[C@@H](C)NC(=O)[C@H](CC(N)=O)NC(=O)[C@H](C)NC(=O)[C@H](Cc1ccccc1)NC(=O)[C@H](Cc1c[nH]cn1)NC(=O)[C@@H](CCCCN)NC(=O)[C@H](CC(N)=O)NC(=O)[C@H](CO)NC(=O)[C@@H](C)NC(=O)CNC(=O)[C@@H](Cc1c[nH]c2ccccc12)NC(=O)[C@H](N)CCCNC(=N)N)C(=O)O [SEQ ID NO: 4, rwGaSNkHFANaNQral] (H-[dR][dW]G[dA]SN[dK]HFAN[dA]NQ[dR][dA][dL]-OH; N-terminus and C-terminus assumed)	–	–	–	–	–	low GC toxicity
DGlGSVlArkNrrDaVl (DG[dL]GSV[dL]A[dR][dK]N[dR][dR]D[dA]V[dL]) [SEQ ID NO: 5]	65453	65431	65475	–	–	–
EGlQSSAYNNYwrklVa (EG[dL]QSSAYNNY[dW][dR][dK][dL]V[dA]) [SEQ ID NO: 17]	61198	60241	62155	–	–	–
GlQwSFANGQwrGalSG (G[dL]Q[dW]SFANGQ[dW][dR]G[dA][dL]SG) [SEQ ID NO: 12]	63783	64623	62943	–	–	–
GlYwSAYNPwrHValaS (G[dL]Y[dW]SAYNP[dW][dR]HV[dA][dL][dA]S) [SEQ ID NO: 18]	59177	60848	57506	–	–	–
kGGYSNAYkHNPrVlGS ([dK]GGYSNAY[dK]HNP[dR]V[dL]GS) [SEQ ID NO: 7]	65425	65521	65329	–	–	–
kGSNArkNrrDaSGVal ([dK]GSNA[dR][dK]N[dR][dR]D[dA]SGV[dA][dL]) [SEQ ID NO: 20]	47876	52284	43467	–	–	–
rGSYSNlFANSGErVGV ([dR]GSYSN[dL]FANSGE[dR]VGV) [SEQ ID NO: 13]	63774	63996	63551	–	–	–

Now from value to compound, other results behind:

Average [2]	Rep 1 [2]	Rep 2 [2]	Compound	GCs considered lifeless ([1]; 20 μg/ml)	GCs that ceased function and were considered lifeless ([1]; 80 μg/ml)	GC toxicity ([1]; 80 μg/ml)
61835	65284	58385	FNGPSArNFYrHDVaVS (FNGPSA[dR]NFY[dR]HDV[dA]VS) [SEQ ID NO: 14]	–	–	–
56883	55679	58087	GGrSVSANlQrErkVaG (GG[dR]SVSAN[dL]Q[dR]E[dR][dK]V[dA]G) [SEQ ID NO: 19]	–	–	–
64458	65128	63787	GSwSGAHNFrkSGVlSG (GS[dW]SGAHNF[dR][dK]SGV[dL]SG) [SEQ ID NO: 11]	–	–	–
61488	62940	60035	NGrSQAHNlrkaGValS (NG[dR]SQAHN[dL][dR][dK][dA]GV[dA][dL]S) [SEQ ID NO: 15]	–	–	–
65427	65462	65391	VGPSVAYNYrVSGValG (VGPSVAYNY[dR]VSGV[dA][dL]G) [SEQ ID NO: 6]	–	–	–
65165	65176	65153	VGwSFAPNGYrlSGVlG (VG[dW]SFAPNGY[dR][dL]SGV[dL]G) [SEQ ID NO: 9]	–	–	–
61418	60363	62472	YGFPSArVNrYwNrHDa (YGFPSA[dR]VN[dR]Y[dW]N[dR]HD[dA]) [SEQ ID NO: 16]	–	–	–
65484	65502	65465	YwGwSHAkaNQFPNrla (Y[dW]G[dW]SHA[dK][dA]NQFPN[dR][dL][dA]) [SEQ ID NO: 3]	–	–	–
64591	63931	65250	rGrSQAYNErSGValSG ([dR]G[dR]SQAYNE[dR]SGV[dA][dL]SG) [SEQ ID NO: 10]	–	–	–
65335	65158	65511	wHGwSGANlFPYrSGVS ([dW]HG[dW]SGAN[dL]FPY[dR]SGVS) [SEQ ID NO: 8]	–	–	–
